Assay results taken from US20260258084A1, “New Peptides as Selective IL-23 Receptor Antagonists” (Sanofi, priority 2022, published 2026).
Starred links: 1 amine or outer side, 2 acyl side, 3 side chain; linkers in the order of their positions; H or OH if unused. Positions of bridges follow the written chain, without caps; N, C: chain ends. Non-standard residues stand in square brackets, D forms with d. No end group written: not given here. Yde = (2S)-2-amino-3-[4-[2-(dimethylamino)ethoxy]phenyl]propanoic acid, CN(C)CCOc1ccc(C[C@H](N[*:1])C(=O)[*:2])cc1; NdmK = (2S)-6-amino-2-(dimethylamino)hexanoic acid, CN(C)[C@@H](CCCCN[*:3])C(=O)[*:2]; Trp(7-Me) = Cc1cccc2c(C[C@H](N)C(=O)O)c[nH]c12; Tyr(Me) = COc1ccc(C[C@H](N[*:1])C(=O)[*:2])cc1; αMeLys(Me2) = CN(C)CCCC[C@](C)(N)C(=O)O; 2Nal = N[C@@H](Cc1ccc2ccccc2c1)C(=O)O; NMe5Ava = CN(CCCCC(=O)[*:2])[*:1]; 3Pal = N[C@@H](Cc1cccnc1)C(=O)O; αMeL = CC(C)C[C@](C)(N)C(=O)O; Aib = CC(C)(N)C(=O)O; Ava = NCCCCC(=O)O; Sar = CNCC(=O)O

B1: Compound of SEQ ID NO: 65 (peptide)
peptide: [Ava]CNT[Trp(7-Me)]K(Ac)C[Yde][2Nal][αMeL]EN[3Pal][Sar]-NH2
modifications: lactam N-11; disulfide 2-7
SMILES: CC(=O)NCCCC[C@@H]1NC(=O)[C@H](Cc2c[nH]c3c(C)cccc23)NC(=O)[C@H]([C@@H](C)O)NC(=O)[C@H](CC(N)=O)NC(=O)[C@@H]2CSSC[C@H](NC1=O)C(=O)N[C@@H](Cc1ccc(OCCN(C)C)cc1)C(=O)N[C@@H](Cc1ccc3ccccc3c1)C(=O)N[C@@](C)(CC(C)C)C(=O)N[C@H](C(=O)N[C@@H](CC(N)=O)C(=O)N[C@@H](Cc1cccnc1)C(=O)N(C)CC(N)=O)CCC(=O)NCCCCC(=O)N2
B2: Compound of SEQ ID NO: 7 (peptide)
peptide: K(Ac)CNTWQC[Tyr(Me)][2Nal][Aib]DNN-NH2
modifications: lactam (positions not given here); disulfide 2-7; not fully specified (bridges); printed as K[Ac](§1)-C(@2)-N-T-W-Q-C(@2)-Yme-Nal-Aib-D(§1)-N—N—NH2; also: K1 acetylated, whether acetyl is on alpha-N or epsilon-N (lactam via the other amine) not settled
notes: §1 lactam bridge; @2 disulfide bridge

The binders below were run against T1, recombinant human IL-23R-Fc chimera (human, UniProt Q5VWK5 24-353) (assay: competition ELISA: IL-23R-Fc binding to coated human IL23).
T1 construct: used at 0.1 µg/ml in the ELISA; not shown: Fc part of the chimera; detected with goat anti-hu-IgG1-HRP a
T1 sequence (looked up): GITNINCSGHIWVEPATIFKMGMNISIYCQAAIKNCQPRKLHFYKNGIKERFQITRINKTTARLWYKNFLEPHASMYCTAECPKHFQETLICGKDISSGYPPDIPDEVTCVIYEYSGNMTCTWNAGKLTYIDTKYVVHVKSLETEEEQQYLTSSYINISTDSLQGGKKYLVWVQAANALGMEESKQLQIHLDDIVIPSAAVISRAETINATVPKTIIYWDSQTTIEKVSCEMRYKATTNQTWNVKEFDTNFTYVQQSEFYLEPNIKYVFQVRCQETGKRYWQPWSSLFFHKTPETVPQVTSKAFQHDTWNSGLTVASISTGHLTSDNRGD
Procedure: Antagonism of compounds for human interleukin-23 receptor antagonists, was determined by an ELISA assay.
A 384-well plate was coated with 50 μl/well of human IL23 at a final concentration of […] and incubated overnight at 4° C. The wells were washed 3 times with 80 μl wash buffer and blocked with 80 μl blocking buffer for 60 minutes at room temperature and washed again. 20 μl of serially diluted test peptides was added to each well and subsequently 20 μl of recombinant human IL-23R-Fc chimera at final concentration of 0.1 μg/ml. The plate was incubated for 60 minutes at room temperature. After the wells were washed, bound IL23R-Fc was detected with goat anti-hu-IgG1-HRP antibody. Signals were visualized with QuantaBlu Fluorogenic Peroxidase Substrate.

| Binder | IC50 |
| --- | --- |
| [NMe5Ava]C[NdmK][Trp(7-Me)]K(Ac)C[Yde][2Nal][αMeLys(Me2)]EN[3Pal][Sar]-NH2 (lactam N-10; disulfide 2-6) [Compound of SEQ ID NO: 61] | 0.36 nM |
| B1 | 0.37 nM |
| B2 | 0.6 nM |

These binders were tested against T2, IL-23 receptor on the surface of HEK-Blue IL-23 cells (UniProt Q5VWK5 24-629, limits assumed) (assay: cell-based or functional assay).
T2 sequence (looked up): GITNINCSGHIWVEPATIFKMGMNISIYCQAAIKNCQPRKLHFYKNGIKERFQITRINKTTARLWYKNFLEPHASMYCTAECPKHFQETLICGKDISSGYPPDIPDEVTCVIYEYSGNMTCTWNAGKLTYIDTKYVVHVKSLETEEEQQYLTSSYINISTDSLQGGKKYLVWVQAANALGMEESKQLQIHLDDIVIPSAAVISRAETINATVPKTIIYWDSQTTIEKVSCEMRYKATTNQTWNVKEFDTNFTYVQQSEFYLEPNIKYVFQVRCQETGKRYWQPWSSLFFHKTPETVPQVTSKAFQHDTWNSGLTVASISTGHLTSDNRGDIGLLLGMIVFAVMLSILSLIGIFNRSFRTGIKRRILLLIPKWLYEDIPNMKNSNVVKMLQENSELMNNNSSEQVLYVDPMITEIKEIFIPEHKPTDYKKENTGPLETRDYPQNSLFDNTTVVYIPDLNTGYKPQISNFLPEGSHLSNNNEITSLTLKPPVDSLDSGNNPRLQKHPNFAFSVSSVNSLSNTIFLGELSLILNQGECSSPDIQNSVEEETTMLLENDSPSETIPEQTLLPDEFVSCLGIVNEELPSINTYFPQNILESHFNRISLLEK

| Binder | pSTAT3 (nM) |
| --- | --- |
| [NMe5Ava]C[NdmK][Trp(7-Me)]K(Ac)C[Yde][2Nal][αMeLys(Me2)]EN[3Pal][Sar]-NH2 (lactam N-10; disulfide 2-6) [Compound of SEQ ID NO: 61] | 4.4 nM |
| B1 | 0.23 nM |
| B2 | 25 nM |
